What is called Km is the substrate concentration at which the rate is half of its maximum. In general, kcat/Km refers to the second-order rate constant that governs catalysis at low substrate concentration.

Substrate in the data set: N[C@@H](CCC(=O)O)C(=O)O
Nature of the data set: purified protein. To be noted: pH 4.6; 25.0 °C.

B1: EcGadB (Escherichia coli K-12) (protein)
chain: MDKKQVTDLRSELLDSRFGAKSISTIAESKRFPLHEMRDDVAFQIINDELYLDGNARQNLATFCQTWDDENVHKLMDLSINKNWIDKEEYPQSAAIDLRCVNMVADLWHAPAPKNGQAVGTNTIGSSEACMLGGMAMKWRWRKRMEAAGKPTDKPNLVCGPVQICWHKFARYWDVELREIPMRPGQLFMDPKRMIEACDENTIGVVPTFGVTYTGNYEFPQPLHDALDKFQADTGIDIDMHIDAASGGFLAPFVAPDIVWDFRLPRVKSISASGHKFGLAPLGCGWVIWRDEEALPQELVFNVDYLGGQIGTFAINFSRPAGQVIAQYYEFLRLGREGYTKVQNASYQVAAYLADEIAKLGPYEFICTGRPDEGIPAVCFKLKDGEDPGYTLYDLSERLRLRGWQVPAFTLGGEATDIVVMRIMCRRGFEMDFAELLLEDYKASLKYLSDHPKLQGIAQQNSFKHT
For B1, the Km is 1100 ± 180 µM and the kcat/Km is 13900 ± 2830 M⁻¹ s⁻¹.
